Laboratory results as given in patent US20140051589.

Tests used:
[1] = test system: 1,557 peptides that contain no tyrosine residues (3,243-plex peptide construct set)
[2] = test system: T1, peptide construct with Cortactin 10-mer VYSMEAADYR (SEQ ID NO:19)
T1 sequence: VYSMEAADYR

[3] = test system: T2, peptide construct with Cortactin 10-mer GTEPEPVYSM (SEQ ID NO:18)
T2 sequence: GTEPEPVYSM

[4] = test system: T3, peptide construct with Cortactin 10-mer GLAYATEAVY (SEQ ID NO:16)
T3 sequence: GLAYATEAVY

[5] = test system: T4, peptide construct with Cortactin 10-mer QVSSAYQKTV (SEQ ID NO:20)
T4 sequence: QVSSAYQKTV

[6] = test system: T5, peptide construct with Cortactin 10-mer GHYPAEDSTY (SEQ ID NO:17)
T5 sequence: GHYPAEDSTY

[7] = test system: T6, peptide construct comprising the enterokinase substrate AGDDDDKAG (SEQ ID NO:2)
T6 sequence: CAAGDDDDKAG

[8] = test system: T7, peptide construct comprising the thrombin substrate GLVPRGSAG (SEQ ID NO:1)
T7 sequence: CAGLVPRGSAG

[9] = test system: peptides containing thrombin cleavage sites (whole yeast peptide construct set from S. cerevisiae genomic DNA)
[10] = test system: T8, peptide construct comprising the Abl substrate GEAIYAAPFA (SEQ ID NO:13) with C-terminal FLAG tag
T8 sequence: GEAIYAAPFADYKDDDDK

[11] = test system: peptide construct with HCV polyprotein 8-mer EVVTSTWV (SEQ ID NO:11)
[12] = test system: peptide construct with HCV polyprotein 8-mer EAIYQCCD (SEQ ID NO:12)
[13] = test system: SEQ ID NO 23
[14] = test system: SEQ ID NO 29
[15] = test system: SEQ ID NO 22
[16] = test system: SEQ ID NO 28
[17] = test system: peptide construct with HCV polyprotein 8-mer VVCCSMSY (SEQ ID NO:10)
[18] = test system: SEQ ID NO 27
[19] = test system: peptide construct with HCV polyprotein 8-mer TTPCSGSW (SEQ ID NO:9)
[20] = test system: SEQ ID NO 25
[21] = test system: peptide construct with HCV polyprotein 8-mer MEECSQHL (SEQ ID NO:8)
[22] = test system: SEQ ID NO 26
[23] = test system: SEQ ID NO 24

## SRC tyrosine kinase
[1]
  phosphorylation, capture on anti-phosphotyrosine beads and sequencing counts: None of the 1557 negative peptides were detected in the assays
[2]
  phosphorylation, capture on anti-phosphotyrosine beads and sequencing counts: Two more sites were identified (GTEPEPVYSM (SEQ ID NO: 18) and VYSMEAADYR (SEQ ID NO: 19))
[3]
  phosphorylation, capture on anti-phosphotyrosine beads and sequencing counts: Two more sites were identified (GTEPEPVYSM (SEQ ID NO: 18) and VYSMEAADYR (SEQ ID NO: 19))
[4]
  phosphorylation, capture on anti-phosphotyrosine beads and sequencing counts: Two of the three Src phosphorylation sites (GLAYATEAVY (SEQ ID NO: 16) and GHYPAEDSTY (SEQ ID NO: 17)) were detected
[5]
  phosphorylation, capture on anti-phosphotyrosine beads and sequencing counts: the third known site that was not detected (QVSSAYQKTV (SEQ ID NO: 20))
[6]
  phosphorylation, capture on anti-phosphotyrosine beads and sequencing counts: Two of the three Src phosphorylation sites (GLAYATEAVY (SEQ ID NO: 16) and GHYPAEDSTY (SEQ ID NO: 17)) were detected

## enterokinase
[7]
  protease cleavage, PAGE of reaction products: When treated with enterokinase, the peptide construct comprising the enterokinase substrate was cleaved
[8]
  protease cleavage, PAGE of reaction products: neither the control nor the peptide construct comprising the thrombin substrate were cleaved

## thrombin
[9]
  protease cleavage, sequence analysis of released constructs: Sequence analysis demonstrated a significant enrichment of peptides containing thrombin cleavage sites
[7]
  protease cleavage, PAGE of reaction products: neither the control nor the peptide construct comprising the enterokinase substrate was cleaved
[8]
  protease cleavage, PAGE of reaction products: then treated with thrombin, the peptide construct comprising the thrombin substrate was cleaved

## ABL1 tyrosine kinase
[10]
  relative qPCR signal {2^[Ct(untreated)-Ct(test)]} after biotin labelling of phosphotyrosine and capture on streptavidin beads: The qPCR signal was ~2-fold higher for the kinase-treated preparation, relative to the untreated preparation
  relative qPCR signal {2^[Ct(untreated)-Ct(test)]} after capture on anti-phosphotyrosine antibody beads: The qPCR signal was significantly higher (~120-fold) for the kinase-treated preparation, relative to the untreated preparation
[1]
  phosphorylation, capture on anti-phosphotyrosine beads and sequencing counts: None of the 1557 negative peptides were detected in the assays

## NS3 (hepacivirin) protease of hepatitis C virus
[11]
  protease cleavage, release from beads and sequencing counts: the undetected site, EVVTSTWV (SEQ ID NO:11), is known to be cleaved only in cis
[12]
  protease cleavage, release from beads and sequencing counts: Peptide EAIYQCCD (SEQ ID NO:12) represents a peptide substrate that does not fit the known HCV NS3 protease consensus
[13]
  protease cleavage, release from beads and sequencing counts: map of peptide cleavage sites identified by assaying overlapping 8-mer peptides of HCV polyprotein (SEQ ID NOS:22, 23, 24, 25, 8, 26, 9, 27, 10, 28, 12, and 29
[14]
  protease cleavage, release from beads and sequencing counts: map of peptide cleavage sites identified by assaying overlapping 8-mer peptides of HCV polyprotein (SEQ ID NOS:22, 23, 24, 25, 8, 26, 9, 27, 10, 28, 12, and 29
[15]
  protease cleavage, release from beads and sequencing counts: map of peptide cleavage sites identified by assaying overlapping 8-mer peptides of HCV polyprotein (SEQ ID NOS:22, 23, 24, 25, 8, 26, 9, 27, 10, 28, 12, and 29
[16]
  protease cleavage, release from beads and sequencing counts: map of peptide cleavage sites identified by assaying overlapping 8-mer peptides of HCV polyprotein (SEQ ID NOS:22, 23, 24, 25, 8, 26, 9, 27, 10, 28, 12, and 29
[17]
  protease cleavage, release from beads and sequencing counts: cleavage of 3 of the 4 known sites published in the MEROPS database was detected
[18]
  protease cleavage, release from beads and sequencing counts: map of peptide cleavage sites identified by assaying overlapping 8-mer peptides of HCV polyprotein (SEQ ID NOS:22, 23, 24, 25, 8, 26, 9, 27, 10, 28, 12, and 29
[19]
  protease cleavage, release from beads and sequencing counts: cleavage of 3 of the 4 known sites published in the MEROPS database was detected
[20]
  protease cleavage, release from beads and sequencing counts: map of peptide cleavage sites identified by assaying overlapping 8-mer peptides of HCV polyprotein (SEQ ID NOS:22, 23, 24, 25, 8, 26, 9, 27, 10, 28, 12, and 29
[21]
  protease cleavage, release from beads and sequencing counts: cleavage of 3 of the 4 known sites published in the MEROPS database was detected
[22]
  protease cleavage, release from beads and sequencing counts: map of peptide cleavage sites identified by assaying overlapping 8-mer peptides of HCV polyprotein (SEQ ID NOS:22, 23, 24, 25, 8, 26, 9, 27, 10, 28, 12, and 29
[23]
  protease cleavage, release from beads and sequencing counts: map of peptide cleavage sites identified by assaying overlapping 8-mer peptides of HCV polyprotein (SEQ ID NOS:22, 23, 24, 25, 8, 26, 9, 27, 10, 28, 12, and 29
